Columns and labels:
Activin A [1] = biological target: T1, Activin A (human, UniProt P08476 311-426); experiment: SPR, 5 nM Activin A + 30 nM binder over hActRIIA-hFc surface
T1 construct: Homodimer of two betaA subunits; bought (R&D Systems #338-AC); also called inhibin-betaA dimer
T1 sequence: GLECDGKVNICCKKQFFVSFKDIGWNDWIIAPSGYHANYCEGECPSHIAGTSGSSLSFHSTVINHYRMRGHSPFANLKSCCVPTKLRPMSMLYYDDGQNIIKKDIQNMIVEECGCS
Protocol: (§1) The binding signal (RU) was measured at 150 seconds after the start of the injection, and this signal was subtracted by the measured RU value for a negative control reference surface to determine the specific binding signal.

Activin A [2] = biological target: T1, Activin A; experiment: SPR, 5 nM Activin A + 3.75 nM binder over Follistatin-288 surface
Protocol: as §1

Activin A [3] = biological target: T1, Activin A; experiment: SPR, 5 nM Activin A + 3.75 nM binder over hActRIIA-hFc surface
Protocol: as §1

Activin A [4] = biological target: T1, Activin A; experiment: SPR, 5 nM Activin A + 0.00 nM binder (no inhibitor) over hActRIIA-hFc surface
Protocol: as §1

Activin A [5] = biological target: T1, Activin A; experiment: SPR, 5 nM Activin A + 15 nM binder over hActRIIA-hFc surface
Protocol: as §1

Activin A [6] = biological target: T1, Activin A; experiment: cell-based or functional assay
Activin A [7] = biological target: T1, Activin A; experiment: SPR, 5 nM Activin A + 60 nM binder over Follistatin-288 surface
Protocol: as §1

Activin A [8] = biological target: T1, Activin A; experiment: SPR, 5 nM Activin A + 1.88 nM binder over Follistatin-288 surface
Protocol: as §1

Activin A [9] = biological target: T1, Activin A; experiment: SPR, 5 nM Activin A + 0 nM binder (no inhibitor) over Follistatin-288 surface
Protocol: as §1

Activin A [10] = biological target: T1, Activin A; experiment: SPR, 5 nM Activin A + 60 nM binder over hActRIIA-hFc surface
Protocol: as §1

Activin A [11] = biological target: T1, Activin A; experiment: SPR, 5 nM Activin A + 15 nM binder over Follistatin-288 surface
Protocol: as §1

Activin A [12] = biological target: T1, Activin A; experiment: SPR, 5 nM Activin A + 7.5 nM binder over Follistatin-288 surface
Protocol: as §1

Activin A [13] = biological target: T1, Activin A; experiment: SPR, 5 nM Activin A + 1.88 nM binder over hActRIIA-hFc surface
Protocol: as §1

Activin A [14] = biological target: T1, Activin A; experiment: SPR, 5 nM Activin A + 30 nM binder over Follistatin-288 surface
Protocol: as §1

Activin A [15] = biological target: T1, Activin A; experiment: SPR, 5 nM Activin A + 0.94 nM binder over Follistatin-288 surface
Protocol: as §1

Activin A [16] = biological target: T1, Activin A; experiment: SPR, 5 nM Activin A + 0.94 nM binder over hActRIIA-hFc surface
Protocol: as §1

Activin A [17] = biological target: T1, Activin A; experiment: SPR, 5 nM Activin A + 7.50 nM binder over hActRIIA-hFc surface
Protocol: as §1

Activin AC = biological target: T2, Activin AC (human, UniProt P55103 237-352); experiment: cell-based or functional assay
T2 sequence 1: T1 sequence
T2 sequence 2: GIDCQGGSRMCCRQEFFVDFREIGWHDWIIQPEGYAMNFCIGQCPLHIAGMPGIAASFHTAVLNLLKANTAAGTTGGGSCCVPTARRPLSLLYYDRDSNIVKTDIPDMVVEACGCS

Activin AB = biological target: T3, Activin AB (human, UniProt P08476 311-426; P09529 293-407); experiment: cell-based or functional assay
T3 chain 1: T1 sequence
T3 chain 2: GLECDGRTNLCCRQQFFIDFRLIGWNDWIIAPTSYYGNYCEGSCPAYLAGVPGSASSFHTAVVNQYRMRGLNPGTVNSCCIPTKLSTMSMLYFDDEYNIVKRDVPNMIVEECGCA

B1: H4H10423P (antibody, human IgG4, V domains shown)
VH: QVQLQQSGPGLLKPSQTLSLTCAISGDSVSSNSAAWSWIRQSPSRGLEWLGRTYYRANWFNDYALSVKSRITINPVTSTNHFSLQLHSVTPEDTAVYYCAREGALGYYFDSWGQGTLVTVSS
VL: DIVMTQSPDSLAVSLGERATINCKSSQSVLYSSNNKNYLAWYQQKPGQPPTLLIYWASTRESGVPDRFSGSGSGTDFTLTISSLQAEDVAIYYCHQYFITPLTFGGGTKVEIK
Activin A [1]
  % bound RU w/ no inhibitor: 114%
Activin A [2]
  % bound RU w/ no inhibitor: 103%
Activin A [3]
  % bound RU w/ no inhibitor: 111%
Activin A [4]
  % bound RU w/ no inhibitor: 100%
Activin A [5]
  % bound RU w/ no inhibitor: 112%
Activin A [6]
  IC50, inhibition of 100 pM Activin A in A204/CAGAx12-Luc luciferase bioassay: 2e-10 M
Activin A [7]
  % bound RU w/ no inhibitor: 93%
Activin A [8]
  % bound RU w/ no inhibitor: 122%
Activin A [9]
  % bound RU w/ no inhibitor: 100%
Activin A [10]
  % bound RU w/ no inhibitor: 116%
Activin A [11]
  % bound RU w/ no inhibitor: 96%
Activin A [12]
  % bound RU w/ no inhibitor: 97%
Activin A [13]
  % bound RU w/ no inhibitor: 114%
Activin A [14]
  % bound RU w/ no inhibitor: 94%
Activin A [15]
  % bound RU w/ no inhibitor: 120%
Activin A [16]
  % bound RU w/ no inhibitor: 112%
Activin A [17]
  % bound RU w/ no inhibitor: 110%

B2: H4H10424P (antibody, human IgG4, V domains shown)
VH: QVQLVESGGGVVQPGRSLRLSCAASGFTFSSYGMHWVRQAPGKGLEWVAVIWYDGSNKYNADSVKGRFTISRDNSKNTVYLQMNSLRAEDTAVYYCARARNYDILTGYYNLGMDVWGQGTTVTVSS
VL: DIQMTQSPSSLSASVGDRVTITCRASQGIRNDLGWYQQKPGKAPKRLIYAASSLQSGVPSRFSGSGSGTEFTLTISSLQPEDFATYYCLQHNSYPYTFGQGTKLEIK
Activin A [6]
  IC50, inhibition of 100 pM Activin A in A204/CAGAx12-Luc luciferase bioassay: 7.6e-10 M

B3: H4H10426P (antibody, human IgG4, V domains shown)
VH: EVQLVESGGNLVQSGRSLRLSCTASGFAFDDFAMHWVRQVPGKGLEWVSGISWNSDTIGYADSVKGRFTISRDNAQNSLFLQMDSLRAEDTALYYCVKDMVRGLIGYYYYGMDVWGQGTTVTVSS
VL: EIVLTQSPAILSLSPGERAILSCRASQSIYTYLSWYQQTPGRAPRLLIYETSSRATGIPARFIGSGSGTDFTLTISSLEPEDFAFYYCQHRSDWPPTFGQGTKLEIK
Activin A [6]
  IC50, inhibition of 100 pM Activin A in A204/CAGAx12-Luc luciferase bioassay: 2.3e-10 M

B4: H4H10430P (antibody, human IgG4, V domains shown)
VH: EVQLVESGGGLVQPGRSLRLSCKASGFAFDDFAMHWVRQAPGKGLEWVSGIVWNSGDIGYADSVKGRFTISRDNAKNSLYLQLNSLRTEDTALYFCVKDMVRGLMGFNYYGMDVWGQGTTVTVSS
VL: EIVLTQSPATLSLSPGERATLSCRASQTISTYLVWYRQRPGQAPSLLIYDASNRATDIPARFSGSGSGTDFTLTISSLEPEDFAVYYCQQRSNWPITFGQGTRLEIK
notes: also called mAb1
Activin A [1]
  % bound RU w/ no inhibitor: 2%
Activin A [2]
  % bound RU w/ no inhibitor: 15%
Activin A [3]
  % bound RU w/ no inhibitor: 19%
Activin A [4]
  % bound RU w/ no inhibitor: 100%
Activin A [5]
  % bound RU w/ no inhibitor: 2%
Activin A [6]
  IC50, inhibition of 100 pM Activin A in A204/CAGAx12-Luc luciferase bioassay: 6.1e-11 M
Activin AC
  IC50, inhibition of 4 nM Activin AC in A204/CAGAx12-Luc luciferase bioassay: 0.93 nM
Activin AB
  IC50, inhibition of 30 pM Activin AB in A204/CAGAx12-Luc luciferase bioassay: 1e-10 M
Activin A [7]
  % bound RU w/ no inhibitor: 1%
Activin A [8]
  % bound RU w/ no inhibitor: 59%
Activin A [9]
  % bound RU w/ no inhibitor: 100%
Activin A [10]
  % bound RU w/ no inhibitor: 2%
Activin A [11]
  % bound RU w/ no inhibitor: 1%
Activin A [12]
  % bound RU w/ no inhibitor: 1%
Activin A [13]
  % bound RU w/ no inhibitor: 62%
Activin A [14]
  % bound RU w/ no inhibitor: 1%
Activin A [15]
  % bound RU w/ no inhibitor: 79%
Activin A [16]
  % bound RU w/ no inhibitor: 81%
Activin A [17]
  % bound RU w/ no inhibitor: 3%

B5: H4H10432P2 (antibody, human IgG4, V domains shown)
VH: EVQLVESGGGLVQPGRSLTLSCAVSGFTFDDHAMHWVRQAPGKGLEWVSGISWNSVSIGYADSVKGRFTISRDNAKTSLYLQMNSLRVDDTALYYCVQDLNDILTGYPLFDFWGQGTLVTVSS
VL: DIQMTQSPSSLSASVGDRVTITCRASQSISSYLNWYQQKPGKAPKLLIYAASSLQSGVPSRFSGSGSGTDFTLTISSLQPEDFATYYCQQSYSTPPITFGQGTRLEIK
Activin A [6]
  IC50, inhibition of 100 pM Activin A in A204/CAGAx12-Luc luciferase bioassay: 1.1e-10 M
Activin AC
  IC50, inhibition of 4 nM Activin AC in A204/CAGAx12-Luc luciferase bioassay: 2.8 nM
Activin AB
  IC50, inhibition of 30 pM Activin AB in A204/CAGAx12-Luc luciferase bioassay: 8e-10 M

B6: H4H10437P2 (antibody, human IgG4, V domains shown)
VH: EVQLVESGGGLVQPGRSLRLSCAASGFTFDDYAMHWVRQAPGKGLEWVSGISWNSGSIGYADSVKGRFTISRDNAKNSLYLQMNSLRAEDTALYYCAKDIMGNWDYFYGMDVWGQGTTVTVSS
VL: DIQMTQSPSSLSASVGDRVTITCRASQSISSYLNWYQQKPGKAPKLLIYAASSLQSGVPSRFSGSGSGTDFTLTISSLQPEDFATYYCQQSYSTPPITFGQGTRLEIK
Activin A [6]
  IC50, inhibition of 100 pM Activin A in A204/CAGAx12-Luc luciferase bioassay: 2.9e-10 M

B7: H4H10438P2 (antibody, human IgG4, V domains shown)
VH: EVQLVESGGGLVQPGRSLRLSCAASGFTFDDNAMHWVRQPPGKGLEWVSGISWNSGSIGYADSVKGRFTISRDNAKNSLYLQMNSLRAEDTALYYCAKDINDILTGYPLFDYWGQGTLVTVSS
VL: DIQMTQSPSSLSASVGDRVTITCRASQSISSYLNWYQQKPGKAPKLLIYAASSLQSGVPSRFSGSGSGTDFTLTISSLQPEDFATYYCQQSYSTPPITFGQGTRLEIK
Activin A [6]
  IC50, inhibition of 100 pM Activin A in A204/CAGAx12-Luc luciferase bioassay: 2.6e-10 M

Reference: patent publication US20220056119A1 (Regeneron, published 2022)
